Reference: paper PMC7690626

Molecular target: T22-GFP-H6 protein nanoparticle (unlabeled) (horseshoe crab | not stated)
Test: SEC-MALS; Superdex 200 increase 10/300 GL; 166 mM NaHCO3, 333 mM NaCl, 0.1 mM NiCl2, pH 8; average molar mass of the self-assembled nanoparticles, in duplicate

T22-GFP-H6 protein nanoparticle (unlabeled)
stoichiometry N: 10 copies
